Test results reported in publication PMC11343839, “Structural mechanism of proton conduction in otopetrin proton channel” (Nature Communications, 2024).
Positions count from the first letter of the chain named. In names and notes the source's numbering stands.

B1: Caenorhabditis elegans Otopetrin-like 8 (CeOTOP8), wild type, full length (natural protein, UniProt G5EDX5 1-619, looked up)
chain: MLMVDEQLKIGATPMYSPSHNPIVIADDMEKGGSDSDSLPSSPTHHHELYRRPWIHEPRATNFFVRLITSLYALILTIISLVVEVSPTWRTDMWLAETIFYISMYGVGILFFAYCYIFIIYPGPYNQLISVLRKYKIIKNSEVWFIMQSQHNGEGAGTLYLRLGALFFGSVGIVLFGLELFLCIENVACKKVAIAKMIVAIVFTFIQMHFIFCNSKITVNSSRKIVAFGMMHLISVNLWTWFRFVLAKQEAKAHKKAQLKQTFRKYYSSSSSSSSEEIHELISAVLNSTLNNTPATKTMEPVASRLFALEHFGDVATFLTTCIVEYSLIGAAIMFILWKSIGQNNHQQSNSGKRKVKMRIDCSSSSTGLFAGIIFLIGSLVSMGMYTIFESLRNSSGAQLVFGIVDLSLFSIALGACIIGLWRMRHLQYRLHAHGEVIDEILLIIGLIGEILYCAVGIDVFITCRRSADLTVSALPAFVFVIRMIQVVVQAAFILTTSRLRCLSKYSMKYKPGKEIITFLLVSNVTLFVFHTFEGMKSSFGFSSKAATQYNYIIYAVGPLLVFYRFHSSACLAEIWKHTYSTKSNEYDHEHMSLSDSNLTAITPISDIKEIPSPQLLKH
notes: Otopetrin-like 8 (CeOTOP8), Caenorhabditis elegans; wild-type full-length channel; the AlphaFold model AF-G5EDX5-F1 was the initial model; A thrombin cleavage site stood between the protein and the C-terminal 10x His tag; residues of the site may remain after digestion; also called WT CeOTOP8; source: HEK293F cells (BacMam system), purified (Ni-NTA, thrombin digestion on column, Superose 6 SEC in …)
B2: Mus musculus Otopetrin 2 (mOTOP2), wild type (natural protein)
chain: MSEELVPHPNESLPGPRASPREVWKKGGRLLSVLLAVNVLLLACTLISGGAFNKVAVYDTDVFALLTTMMLLAALWIVFYLLRTARCPDAVPYRDAHAGPIWLRGGLVLFGICTLVMDVFKTGYYSSFFECQSAIKILHPIIQAVFVIVQTYFLWISAKDCIHTHLDLTRCGLMFTLATNLAIWMAAVVDESVHQAHSYSGSHGNTSHTRLNPDSKRAGGAAEEDPCLCSTAICQIFQQGYFYLYPFNIEYSLFASTMLYVMWKNVGRLLASTHGHGHTPSRVSLFRETFFAGPVLGLLLFVVGLAVFILYEVQVSGERGHTRQALVIYYSFNIVCLGLMTLVSLSGSVIYRFDRRAMDHHKNPTRTLDVALLMGAALGQYAISYYSIVAVVVGSPRDLQGALNLSHALLMIAQHTFQNVFIIESLHRGPPGAEPREMPPKEPCQGITFANLDAIRTLPSCPPTPRLVIPNLESPQEAVAIISAPRCHWRRRCLKDISLFLLLCNVILWIMPAFGARPHFSNTVEVDFYGYSLWAAIVNICLPFGIFYRMHAVSSLLEVYVLS
notes: Otopetrin 2 (mOTOP2), Mus musculus; wild type; the AlphaFold model AF-Q80SX5-F1 was the initial model; N-terminal 10x His tag, then GFP, then a thrombin cleavage site; residues of the site may remain after digestion; also called mouse OTOP2; WT mOTOP2; source: HEK293F cells (BacMam system), purified (Ni-NTA, thrombin digestion on column, Superose 6 SEC in GDN); not shown: His10, N-terminal, …
B3: mOTOP2 M374W (natural protein, Mus musculus)
chain: B2 chain with M374W
notes: Otopetrin 2 (mOTOP2), Mus musculus, with the point mutation M374W on TM9; same construct as the wild-type channel; The general purification protocol removes His10-GFP with thrombin; also called mOTOP2 M374W loss-of-function mutant; source: HEK293F cells (pEZTBM vector, same construct as the wild type), purified
B4: mOTOP2 L30W (natural protein, Mus musculus)
chain: B2 chain with L30W
notes: Otopetrin 2 (mOTOP2), Mus musculus, with the point mutation L30W on TM1; same construct as the wild-type channel; The general purification protocol removes His10-GFP with thrombin; also called mOTOP2 L30W loss-of-function mutant; source: HEK293F cells (pEZTBM vector, same construct as the wild type), purified
B5: mOTOP2 V370W (natural protein, Mus musculus)
chain: B2 chain with V370W
notes: Otopetrin 2 (mOTOP2), Mus musculus, with the point mutation V370W on TM9; same construct as the wild-type channel; The general purification protocol removes His10-GFP with thrombin; also called mOTOP2 V370W loss-of-function mutant; source: HEK293F cells (pEZTBM vector, same construct as the wild type), purified

Columns and labels:
[1] = target: the molecule itself; assay: cryo-EM structure; single-particle cryo-EM of protein purified in GDN detergent (20 mM Tris, 150 mM NaCl, 0.04% GDN), 3.0 mg/mL; samples at pH 5.0 and 8.0 (CeOTOP8), pH 5.0, 7.0, 8.0 and 9.0 (mOTOP2), pH 8.0 (mOTOP2 M374W)
[2] = target: the molecule itself; assay: SEC; loss-of-function mutants of mOTOP2 purified as a stable dimer (Supplementary Fig. 10b, not shown); the general purification ends with Superose 6 10/300 GL in 20 mM Tris pH 8.0, 150 mM NaCl, 0.04% GDN

| Protein | stoichiometry N [1] | stoichiometry N [2] |
| --- | --- | --- |
| B1 | 2 | – |
| B2 | 2 | – |
| B3 | – | 2 |
| B4 | – | 2 |
| B5 | – | 2 |
